A short description of the data set: yeast display, Sf9 membrane polyspecificity reagent, FACS + sequencing; frameworks hold sequencing errors. The essentials:
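Sorting gates, low and high (top ~1%), were placed on anti-HA fluorescence to track expression and on streptavidin fluorescence to track reagent binding. A clone's polyreactivity label is taken from the gate it came out of. The reagent was 10% biotinylated, detergent-solubilized Sf9 membrane, applied for 1 hour at 4 °C to galactose-induced yeast display cells.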
On to “QVQLVESGGGLVQAGGSLRLSCAASGFTVPGYAMGWYRQAPGNERELVAAINSSGGRTYYADSVKGRFTISRDTAKITVYFQMTSLKPEDTAVYYCAATRWYIRARYNYWGQGTQVTVSS”, for which the “polyreactivity (PSR sort gate)” value was “high polyreactivity”. As for “QVQLVESGGGLVQAGGSLRLSCAASGFTYIDYAMGWYRQAPGKERELVAAITSRGGTTYYADSVKGRFTISRDNAKNTVYLLMNSLKPEDTAVYYCNAGSSFWVSRIGYDYWGQGTQVTVSS”, the “polyreactivity (PSR sort gate)” value is reported as “high polyreactivity”. For “QVQLVESGGGLVQAGGSLRLSCAASGFTYIRYAMGWSRKATGKERQLVAAIRGTGTSTYFADSVKGRFTISRDNGKNTVYLQMNSLKPEETAVYYCNNVSGRSPYTRYDYWGQGTQVTVSS”, the “polyreactivity (PSR sort gate)” value was “low polyreactivity”. As for “QVQLVESGGGLVQAGGSLRLSCAASGFTYNRYAMGWYRQAPGKERELVAGISWGGGSTYYADSVKGRFTISRDNAKNTVYLQMNSLKPEDTAVYYCAAGWQHYRRYGSYDYWGQGTQVTVSS”, the “polyreactivity (PSR sort gate)” value is “high polyreactivity”. Turning to “QVQLVESGGGLVQAGGSLRLSCAASGFTYPGYAMGWYRQAPRKERELVASITDNGANTYYADSVKGRFTISRDNAKNTVYLQMNSLKPEDTAVYYCAADPGRVTRVGVRYYYWGQGTQVTVSS”, the “polyreactivity (PSR sort gate)” value is “high polyreactivity”. Regarding “QVQLVESGGGLVQAGGSLRLSCAASGFTYRKYALGWYRQAPGKERELVAVINIVGSTYYADSVKGRFTISRDNAKNTVYLQMYSLTPEDTAVYYCAADWSYRLKYYWYGGFKYWGQGTQVTVSS”, the “polyreactivity (PSR sort gate)” value is recorded as “high polyreactivity”. For “QVQLVESGGGLVQAGGSLRLSCAASGFTYSRYAMGWYRQAPGKERELVAAIRLRDGITYYADSVKGRITISRDNAKNTVYLQMNRLKPEDTAVYYCNAVNRTPVSQLDYWGQGTQVTVSS”, the “polyreactivity (PSR sort gate)” value is reported as “high polyreactivity”. In the case of “QVQLVESGGGLVQAGGSLRLSCAASGFTYYAMGWYRQAPGKERELVAAITRGGSTYYADSVKGRFTISRDNAKNTVYLQMNSLKPEDTAVYYCAVLQRAARLGYNYWGQGTQVTVSS” it was “high polyreactivity”; in that of “QVQLVESGGGLVQAGGSLRLSCAASGFTYYIYAMGWYRQAPGKERELVAAISRSAGITNYADSVKGRFTISRDNAKNTVYLQMNSLKAEDTAVYYCAAEVGYWGYQISGDYWGQGTQVTVSS”, “low polyreactivity”. The result for “QVQLVESGGGLVQAGGSLRLSCAASGFVWYTMGWYRQAPGKERELVADITYRGGSTYYADSVKGRFTISRDNAKNTVYLQMNSLKPEDTAVYYCAAKPHWYWRYEYWGQGTQVTVSS” reads “high polyreactivity”; that for “QVQLVESGGGLVQAGGSLRLSCAASGFYYGMGWYRQAPGKERELVAAISRGGSTYYADSVKGRFTISRDNAKNTVYLQMNSLKPEDTAVYYCAATYRSLYGSRMGYWGQGTQVTVSS”, “high polyreactivity”; that for “QVQLVESGGGLVQAGGSLRLSCAASGFYYYVMVWYRQAPGKERELVAGITASGGSTYADSVKGRFTISRDNAMYTVYLQMNSLKPEDTAVYYCAAGFVGTNYTLHGFSYEYWGQGTQVTVSS”, “low polyreactivity”.

“QVQLVESGGGLVQAGGSLRLSCAASGGIFAPNAKGWYRQAPGKEREFVAAISTGGGSTRYADSVKGRFTISRDNAKYTVYLQMNSLKPEDTAVYYCAATRVGVRRMDYWGQGTQVTVSS”: the “polyreactivity (PSR sort gate)” value was “low polyreactivity”.

“QVQLVESGGGLVQAGGSLRLSCAASGGIFAPYAMGWYRTAPGKERELVAAISSSDGSTYYADSVKGRFTISRDNAQNTVYLHMNSLKTVDTAVYYCAADYREDYGYWGEGTQVTVSS”: the “polyreactivity (PSR sort gate)” value was “low polyreactivity”. On to “QVQLVESGGGLVQAGGSLRLSCAASGGIFAQYAMGWYRQAPGKEREFVATISTSGGSTYYADSVKGRYTISRDNAKNTVYLQMNSLKPEDTAVYYCARYSYRGTNVRYDYWGQGTQVTVSS”, for which the “polyreactivity (PSR sort gate)” value is “high polyreactivity”. In the case of “QVQLVESGGGLVQAGGSLRLSCAASGGIFARYAMGWYRQAPGKEREFVAAISFSGASTYYADSVKGRFTISRDNAKNTVYLQMNSLKPEDTAVYYCAAYWDAEGRRYTRLDYWGQGTQVTVSS” it was “low polyreactivity”; in that of “QVQLVESGGGLVQAGGSLRLSCAASGGIFARYVKGWYRQAPGKERELVAAISLSGGSTYYADSVKGRFTISRDNAKKTVYLQMNSLNPEDTAVYYCAAIRKKRLTYDYWGQGTEVTVSS”, “high polyreactivity”; in that of “QVQLVESGGGLVQAGGSLRLSCAASGGIFAVNVMGWYRQAPGKERELVAAITSTGSTYYADSVKGRFTISRDNAKNTVYLQMNSLKPEDTAVYYCASDYVYYDSYDDTVFGYEYWGQGTQVTVSS”, “high polyreactivity”. The result for “QVQLVESGGGLVQAGGSLRLSCAASGGIFAYYVMGWYRQAPGKERELVASISSGGGTYYADSVKGRFTISRDNAKNTVYLQMNSLKPEDTAVYYCAARWLRYVYPDGHLFWYDYWGQGTQVTVSS” reads “high polyreactivity”; that for “QVQLVESGGGLVQAGGSLRLSCAASGGIFDDYAMGWYRQAPGKERELVAAISSSGGSTYYADSVKGRFTISRDNAKNTVYLQMNSLKPEDTAVYYCNADRRRRFGYWGQGTQVTVSS”, “high polyreactivity”.

As to “QVQLVESGGGLVQAGGSLRLSCAASGGIFDENAMGWYRQAPGKARELVAGITQRGASTNYADSVKGRFTISRDNAKNTVYLQMNSLKPEDTAVYYCDADVGTVISYEYWGQGTQVTVSS”, the “polyreactivity (PSR sort gate)” value is listed as “low polyreactivity”. As to “QVQLVESGGGLVQAGGSLRLSCAASGGIFFTYAMGWYRQAPGKERELVAGISWSDGSTYADSVKGRFTISRDNAKNTVYLQMNSLKPEDTAVYYCNKRIYDLFLSPAAGGYWGQGTQVTVSS”, the “polyreactivity (PSR sort gate)” value is on record as “low polyreactivity”. In the case of “QVQLVESGGGLVQAGGSLRLSCAASGGIFFYSAMGWYRQAPGTERELVAAISYSGGSTYYADSVKGRFTISRDIAKNTVYLQMISLKPEDTAVYYCAADVYSESKSGIYEYWGQGTQVTVSS” it was “low polyreactivity”; in that of “QVQLVESGGGLVQAGGSLRLSCAASGGIFGGYAMGWYRPAPGKEGELVAVITSGGSTYYADSVKGRFTISRDNAKNTVYLQMNSLKPEDTAVYYCAALGQYQTVYSDGYDYYYWGQGTKVTVSS”, “low polyreactivity”; in that of “QVQLVESGGGLVQAGGSLRLSCAASGGIFGGYAMGWYRQAPGKEGELVPVITSGGSTYYADSVKARFTISRDNAKNTVYLQMNSLKPEDTAVYYCAADGHSYSYSTYDYWGQGTQVTVSS”, “low polyreactivity”. Consider “QVQLVESGGGLVQAGGSLRLSCAASGGIFGHNAMGWYRQAPGKERELVAAISYTGGSTYYADSVKGRFTISRDNAKNTVNLQMNSLKPEDTAVYYCNAVQRRFRYPFDYWGQGTQVTVSS”, for which the “polyreactivity (PSR sort gate)” value was “low polyreactivity”.

For the sequence “QVQLVESGGGLVQAGGSLRLSCAASGGIFGIYAMGSYRQAPGKERELVAAINGGTSTYYADSVKGRFTISRDNAKNTVYLQMNSLKPEDTAVYYCAADWRYLYYALDYWGQGTQVTVSS”, the “polyreactivity (PSR sort gate)” value is “low polyreactivity”. For the sequence “QVQLVESGGGLVQAGGSLRLSCAASGGIFGRYAMGWYIQAPGKERELFAAISKRGGSTYYADSVKGRFTISRDNAKNTVYLQMNSLKPEDTAVYYCNAYRLSYTTFGKADGDYWGQGTQVTVSS”, the “polyreactivity (PSR sort gate)” value is “high polyreactivity”. Regarding “QVQLVESGGGLVQAGGSLRLSCAASGGIFGWYTMGWYRQAPGKERELVAAINFSGSRTYYADSVKGRFTISRDNAKNTVYLQMNSLKPEDTAVYYCNAVYHQFREEYWGQGTQVTVSS”, the “polyreactivity (PSR sort gate)” value is “high polyreactivity”. “QVQLVESGGGLVQAGGSLRLSCAASGGIFGYYAMGWYRPAPGKERELVAAINYSGGSTYYADSVKGRFTISRDNAKNTVYLQMNSLKPEDTAVYYCNAVVRDYTFRYYYWGQGTQVTVSS”: the “polyreactivity (PSR sort gate)” value is “low polyreactivity”. The result for “QVQLVESGGGLVQAGGSLRLSCAASGGIFHHYAMGWSRPAPGKERELVAGISWRGTSTYYADSVKGRFTISRDNAKNTVYLQMNSLKPEDTAVYYCARVYPYSVGYNSGHPASYDYWGQGTQVTVSS” reads “high polyreactivity”; that for “QVQLVESGGGLVQAGGSLRLSCAASGGIFHSNAMGWYRQAPGKERELVAAISYSGGSTYYADSVKGRFTISRDNAKNTVYLQMNSLKPEDTAVYYCAKRYYGSPQLRYYYWGQGTQVTVSS”, “high polyreactivity”. Consider “QVQLVESGGGLVQAGGSLRLSCAASGGIFIGYAMGWYRQAPGKERELVARIRSSGGTTYYADSVKGRFTISRDNAKNTVYLQMNSLKPEDTAVYYCAKRTSSSWAYGPYYYWGQGTQVTVSS”, for which the “polyreactivity (PSR sort gate)” value is given as “high polyreactivity”. Turning to “QVQLVESGGGLVQAGGSLRLSCAASGGIFIYNAMGWYRQAPGKEREFVAAINISGGNTYYADSVKGRFTISRDNAKNTVYLQMNSLKPEDTAVYYCAKSGRYGFWGQGTQVTVSS”, the “polyreactivity (PSR sort gate)” value was “high polyreactivity”. Take “QVQLVESGGGLVQAGGSLRLSCAASGGIFKRYAMGWYRQEPGKERELVAAISGRGGGTYYADSVKGRFTISRDNAKNTDYLQMNSLKPEDTAVYYCNARLSWSAFGYWGQGTQVTVSS”: the “polyreactivity (PSR sort gate)” value was “high polyreactivity”. In the case of “QVQLVESGGGLVQAGGSLRLSCAASGGIFKYYAMGWYRLAPGKERELVAAITSGGNTNYADSVKGRFTISRDNAKNTVYLQMNSLKPEDTAVYYCAARSISRRTWQYNYWGQGTQVTVSS”, the “polyreactivity (PSR sort gate)” value is listed as “high polyreactivity”. Turning to “QVQLVESGGGLVQAGGSLRLSCAASGGIFLFNAMGWYRQAPGKERELVAAITDGGSTYYADSVKGRFTISRDNAKNTVYLQMNSLIPDDTAVYYCNKDSSFWGYYIAQVNERDYWGQGTQVTVSS”, the “polyreactivity (PSR sort gate)” value was “low polyreactivity”.

Turning to “QVQLVESGGGLVQAGGSLRLSCAASGGIFLSNAMGWYRQAPGKERELVAAISRSGGSTYYADSVKGRFTISRDNAKNTVYLQMNSLKPEDTAVYYCAARWTRNYGMNYWGQGTQVTVSS”, the “polyreactivity (PSR sort gate)” value was “high polyreactivity”. The result for “QVQLVESGGGLVQAGGSLRLSCAASGGIFNYYAMGWYRQAPGKERELVAAMTSAGSTYADSVKGRFTISRDNATNTVSLQMNILKPEDTAVYYCNAVGVVVKFGYYLIGYAKWYDYWGQGSQVTVSS” reads “low polyreactivity”; that for “QVQLVESGGGLVQAGGSLRLSCAASGGIFNYYVMGWYRQAPGIERELVAAISNGGSPNYADSVKGRFTISRDNAKNPVYLQMNSLKPEDTAVYYCAAHTYSELSWLVVYPYDYWGQGTQVTVSS”, “low polyreactivity”.
